Like-named read-outs stand apart in the source and are kept apart here. Where no end group is shown, it is not given here. The star is where a group is joined. Biotin = O=C1N[C@H]2[C@H](CS[C@H]2CCCCC(=O)*)N1; TTDS = NCCCOCCOCCOCCCNC(=O)CCC(=O)*
T1: MBP-fused PDZ domain of MAST2 (human, UniProt Q6P0Q8 1104-1192)
T1 sequence (looked up): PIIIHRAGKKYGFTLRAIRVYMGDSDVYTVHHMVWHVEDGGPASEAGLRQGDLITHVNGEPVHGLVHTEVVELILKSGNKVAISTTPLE

T2: MBP-fused PDZ domain 3 of PDZD7 (human, UniProt Q9H5P4 862-934)
T2 sequence (looked up): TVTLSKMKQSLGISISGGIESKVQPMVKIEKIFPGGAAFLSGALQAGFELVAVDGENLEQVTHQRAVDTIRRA

T3: MBP-fused PDZ domain of MAST1 (human, UniProt Q9Y2H9 967-1055)
T3 sequence (looked up): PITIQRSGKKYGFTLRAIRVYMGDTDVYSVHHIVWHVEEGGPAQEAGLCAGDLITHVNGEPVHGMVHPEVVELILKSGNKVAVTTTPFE

T4: MBP-fused PDZ domain 1 of NHERF3 (human, UniProt Q5T2W1 9-90)
T4 sequence (looked up): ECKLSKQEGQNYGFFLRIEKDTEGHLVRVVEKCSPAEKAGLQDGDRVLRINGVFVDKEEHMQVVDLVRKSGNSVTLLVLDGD

T5: MBP-fused PDZ domain 1 of PARD3B (human, UniProt Q8TEW8 201-289)
T5 sequence (looked up): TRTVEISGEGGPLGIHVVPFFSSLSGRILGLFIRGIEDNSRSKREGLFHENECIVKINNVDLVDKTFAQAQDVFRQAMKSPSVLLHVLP

T6: MBP-fused PDZ domain 1 of PDZRN4 (human, UniProt Q6ZMN7 224-314)
T6 sequence (looked up): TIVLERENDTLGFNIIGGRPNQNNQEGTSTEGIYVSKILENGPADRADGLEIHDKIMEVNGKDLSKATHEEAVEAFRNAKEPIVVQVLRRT

T7: MBP-fused PDZ domain of SNTG2 (human, UniProt Q9NY99 73-156)
T7 sequence (looked up): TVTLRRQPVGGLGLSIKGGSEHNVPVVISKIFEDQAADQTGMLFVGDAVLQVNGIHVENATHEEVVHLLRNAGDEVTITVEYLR

T8: MBP-fused PDZ domain 1 of PDZRN3 (human, UniProt Q9UPQ7 249-339)
T8 sequence (looked up): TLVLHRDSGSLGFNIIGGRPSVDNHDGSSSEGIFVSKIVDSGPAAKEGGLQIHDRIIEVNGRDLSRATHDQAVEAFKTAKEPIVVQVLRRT

T9: MBP-fused PDZ domain of SNTA1 (human, UniProt Q13424 87-170)
T9 sequence (looked up): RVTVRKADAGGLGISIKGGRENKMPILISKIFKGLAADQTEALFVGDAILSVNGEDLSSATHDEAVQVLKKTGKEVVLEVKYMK

T10: MBP-fused PDZ domain of SNTB1 (human, UniProt Q13884 112-195)
T10 sequence (looked up): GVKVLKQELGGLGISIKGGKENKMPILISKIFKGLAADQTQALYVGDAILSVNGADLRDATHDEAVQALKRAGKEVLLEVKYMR

T11: MBP-fused PDZ domain of SYNJ2BP (human, UniProt P57105 13-100)
T11 sequence (looked up): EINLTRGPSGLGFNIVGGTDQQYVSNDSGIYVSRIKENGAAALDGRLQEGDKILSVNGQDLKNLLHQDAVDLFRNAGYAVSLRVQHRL

T12: MBP-fused PDZ domain of ARHGEF12 (human, UniProt Q9NZN5 72-151)
T12 sequence (looked up): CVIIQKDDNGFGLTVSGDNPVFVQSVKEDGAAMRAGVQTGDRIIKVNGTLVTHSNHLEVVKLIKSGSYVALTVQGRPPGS

T13: biotinylated RSK1 725-735 peptide, unphosphorylated (human, UniProt Q15418 725-735)
T13 peptide (looked up): {Biotin-TTDS}-RRVRKLPSTTL


How the values were obtained:
[1] = target: T1, MBP-fused PDZ domain of MAST2; assay: fluorescence polarisation
[2] = target: T2, MBP-fused PDZ domain 3 of PDZD7; assay: fluorescence polarisation
[3] = target: T3, MBP-fused PDZ domain of MAST1; assay: fluorescence polarisation
[4] = target: T4, MBP-fused PDZ domain 1 of NHERF3; assay: fluorescence polarisation
[5] = target: T5, MBP-fused PDZ domain 1 of PARD3B; assay: fluorescence polarisation
[6] = target: T14, MBP-fused PDZ domain 2 of MAGI2 (human, UniProt Q86UL8 426-510); assay: fluorescence polarisation
[7] = target: T15, MBP-fused PDZ domain of HTRA1 (human, UniProt Q92743 365-467); assay: fluorescence polarisation
[8] = target: T6, MBP-fused PDZ domain 1 of PDZRN4; assay: fluorescence polarisation
[9] = target: T7, MBP-fused PDZ domain of SNTG2; assay: fluorescence polarisation
[10] = target: T8, MBP-fused PDZ domain 1 of PDZRN3; assay: fluorescence polarisation
[11] = target: T9, MBP-fused PDZ domain of SNTA1; assay: fluorescence polarisation
[12] = target: T10, MBP-fused PDZ domain of SNTB1; assay: fluorescence polarisation
[13] = target: T11, MBP-fused PDZ domain of SYNJ2BP; assay: fluorescence polarisation
[14] = target: T16, MBP-fused PDZ domain of SNX27 (human, UniProt Q96L92 43-136); assay: fluorescence polarisation
[15] = target: T12, MBP-fused PDZ domain of ARHGEF12; assay: fluorescence polarisation
[16] = target: T17, MBP-fused PDZ domain 2 of GRID2IP (human, UniProt A4D2P6 279-356); assay: fluorescence polarisation
[17] = target: T1, MBP-fused PDZ domain of MAST2; assay: SPR
[18] = target: MBP-fused second PDZ domain of MAGI1 (human, UniProt Q96QZ7 472-554); assay: SPR
[19] = target: T4, MBP-fused PDZ domain 1 of NHERF3; assay: SPR
[20] = target: T14, MBP-fused PDZ domain 2 of MAGI2; assay: SPR
[21] = target: T6, MBP-fused PDZ domain 1 of PDZRN4; assay: SPR
[22] = target: T8, MBP-fused PDZ domain 1 of PDZRN3; assay: SPR
[23] = target: T9, MBP-fused PDZ domain of SNTA1; assay: SPR
[24] = target: T10, MBP-fused PDZ domain of SNTB1; assay: SPR
[25] = target: T11, MBP-fused PDZ domain of SYNJ2BP; assay: SPR
[26] = target: T12, MBP-fused PDZ domain of ARHGEF12; assay: SPR
[27] = target: T1, MBP-fused PDZ domain of MAST2; assay: fluorescence polarisation; remark: listed apart in the source
[28] = target: T2, MBP-fused PDZ domain 3 of PDZD7; assay: fluorescence polarisation; remark: listed apart in the source
[29] = target: T3, MBP-fused PDZ domain of MAST1; assay: fluorescence polarisation; remark: listed apart in the source
[30] = target: T5, MBP-fused PDZ domain 1 of PARD3B; assay: fluorescence polarisation; remark: listed apart in the source
[31] = target: T15, MBP-fused PDZ domain of HTRA1; assay: fluorescence polarisation; remark: listed apart in the source
[32] = target: T7, MBP-fused PDZ domain of SNTG2; assay: fluorescence polarisation; remark: listed apart in the source
[33] = target: T9, MBP-fused PDZ domain of SNTA1; assay: fluorescence polarisation; remark: listed apart in the source
[34] = target: T10, MBP-fused PDZ domain of SNTB1; assay: fluorescence polarisation; remark: listed apart in the source
[35] = target: T16, MBP-fused PDZ domain of SNX27; assay: fluorescence polarisation; remark: listed apart in the source
[36] = target: T17, MBP-fused PDZ domain 2 of GRID2IP; assay: fluorescence polarisation; remark: listed apart in the source
[37] = target: T13, biotinylated RSK1 725-735 peptide, …; assay: holdup assay

T15 sequence (Q92743 365-467): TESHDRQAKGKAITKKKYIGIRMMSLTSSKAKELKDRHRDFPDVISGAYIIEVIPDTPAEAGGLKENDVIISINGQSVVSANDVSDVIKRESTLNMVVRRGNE
T14 sequence (Q86UL8 426-510): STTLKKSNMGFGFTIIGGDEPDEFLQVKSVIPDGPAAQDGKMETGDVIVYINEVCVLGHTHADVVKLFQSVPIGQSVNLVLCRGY
T17 sequence (A4D2P6 279-356): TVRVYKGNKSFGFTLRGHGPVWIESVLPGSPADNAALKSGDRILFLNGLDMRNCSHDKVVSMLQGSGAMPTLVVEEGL
MBP-fused second PDZ domain of MAGI1, sequence (Q96QZ7 472-554): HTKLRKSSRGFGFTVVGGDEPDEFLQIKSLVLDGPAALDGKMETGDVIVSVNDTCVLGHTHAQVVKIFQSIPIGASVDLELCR

Row | Binder | Kd [1] [µM] | Kd [2] [µM] | Kd [3] [µM] | Kd [4] [µM] | Kd [5] [µM] | Kd [6] [µM] | Kd [7] [µM] | Kd [8] [µM] | Kd [9] [µM] | Kd [10] [µM] | Kd [11] [µM] | Kd [12] [µM] | Kd [13] [µM] | Kd [14] [µM] | Kd [15] [µM] | Kd [16] [µM] | also measured
1 | KLPSTTL (peptide, UniProt Q15418 729-735, looked up, phosphorylated; fluorescein labeled) [fluorescein labeled RSK1 729-735 peptide, phosphorylated] | 13 ± 2 | 1.8 ± 0.1 | 34 ± 8 | 220 ± 30 | 6.8 ± 0.5 | 430 ± 45 | 11.3 ± 0.4 | 14 ± 2 | 24 ± 2 | 17.5 ± 1.4 | 4.9 ± 0.4 | 1.5 ± 0.1 | 16 ± 1 | 4.4 ± 0.4 | 29 ± 8 | 47 ± 15 | 
2 | RSSRTRRETQL (not fully specified (N-terminus); also: biotinylated, position not given here) [biotinylated HPV16 E6 peptide] |  |  |  |  |  |  |  |  |  |  |  |  |  |  |  |  | Kd [17]: 2.5 ± 0.2 µM; Kd [18]: 3.4 ± 0.8 µM; Kd [19]: 23 ± 3 µM; Kd [20]: 2.9 ± 0.14 µM; Kd [21]: 6 ± 1.5 µM; Kd [22]: 8.6 ± 1.6 µM; Kd [23]: 101 ± 40 µM; Kd [24]: 27 ± 4 µM; Kd [25]: 33 ± 4 µM; Kd [26]: 10.9 ± 1.4 µM
3 | KLPSTTL (peptide, UniProt Q15418 729-735, looked up, also: fluorescein labeled, site not given here) [fluorescein labeled RSK1 729-735 peptide, unphosphorylated] | 7.9 ± 0.6 | 0.8 ± 0.05 | 26 ± 4 | 80 ± 20 | 27 ± 3 | 420 ± 30 | 30 ± 2 | 33 ± 5 | 65 ± 2 | 90 ± 25 | 41 ± 11 | 18 ± 2 | 39 ± 2 | 25 ± 6 | 7.5 ± 0.8 | 5.1 ± 0.4 | 
4 | RSK1 683-735 peptide, unphosphorylated (peptide, UniProt Q15418 683-735, looked up) peptide: QSQLSHQDLQLVKGAMAATYSALNSSKPTPQLKPIESSILAQRRVRKLPSTTL |  |  |  |  |  |  |  |  |  |  |  |  |  |  |  |  | Kd [27]: 19 ± 7 µM; Kd [28]: 4 ± 1 µM; Kd [29]: 5 ± 1 µM; Kd [30]: 45 ± 7 µM; Kd [31]: 19 ± 3 µM; Kd [32]: 24 ± 12 µM; Kd [33]: 81 ± 17 µM; Kd [34]: 37 ± 6 µM; Kd [35]: 185 ± 25 µM; Kd [36]: 1.7 ± 0.3 µM
5 | first PDZ domain of Scribble (domain or fragment) not shown |  |  |  |  |  |  |  |  |  |  |  |  |  |  |  |  | Kd [37]: 60 to 70 µM

— paper PMC6424611 (Journal of molecular biology, 2019)
